In US20250236667A1, “ANTIBODIES TO MUTANT CALRETICULIN AND USES THEREOF” (CENTRAL ADELAIDE LOCAL HEALTH NETWORK INC, priority 2021, published 2025):

How the values were obtained:
mutant CALR protein = target: T1, mutant CALR protein (Homo sapiens, UniProt P27797); experiment: Western blot detection of mutant CALR by hybridoma clones; type: binding
T1 construct: expressed in transfected cells; host or cells: TF-1 TpoR cells, pCX4-IRES eGFP vector
T1 sequence (P27797 with tags, fused parts or gaps limits assumed): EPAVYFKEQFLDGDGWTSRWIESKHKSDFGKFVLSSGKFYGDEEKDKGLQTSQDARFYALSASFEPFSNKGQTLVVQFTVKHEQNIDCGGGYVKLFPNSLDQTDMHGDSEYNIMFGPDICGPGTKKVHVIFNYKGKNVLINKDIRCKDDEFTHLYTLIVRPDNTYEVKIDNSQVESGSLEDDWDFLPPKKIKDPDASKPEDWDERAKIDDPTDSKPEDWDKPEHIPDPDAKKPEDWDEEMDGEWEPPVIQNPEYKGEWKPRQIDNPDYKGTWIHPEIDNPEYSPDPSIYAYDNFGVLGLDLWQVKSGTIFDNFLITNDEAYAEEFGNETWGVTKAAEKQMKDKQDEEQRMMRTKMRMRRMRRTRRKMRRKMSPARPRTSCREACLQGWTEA
Method: Rats were immunised with a CALR mutant peptide “MMRTKMRMRRMRRT RRKMRRKMSPARPRTS” coupled to KLH, this peptide sequence is unique to CALR mutant. Serum from the immunised rats was screened by enzyme linked immunoassay, to verify a strong titre to the peptide immunogen, prior to performing the hybridoma fusion. Immunised rat spleen cells were harvested and a spleen single cell suspension was combined with Sp2/O myeloma cell line. The cell mixture was treated with polyethylene glycol plus DMEM prior to been plated in 96 well flat bottom plates. The expanding hybridomas were screened initially by ELISA and the positive clones were further verified by western blot, for reactivity to the expressed CALR mutant protein before subcloning the hybridomas for antibody production.
For immunoblotting of total lysates, cells were lysed in NP40 buffer containing 150 mM NaCl, 50 mM Tris pH 7.6, 1% NP-40, supplemented with protease inhibitors (Complete, Roche) and phosphatase inhibitor cocktails, and boiled for 5 minutes after addition of sample buffer (60 mM Tris pH 6.8, 5% glycerol, 1% SDS, 2% β-mercaptoethanol, 0.02% bromophenol blue) before SDS gel electrophoresis followed by Western blotting (Tvorogov et al, 2010). Primary antibodies against pERK (#9101), pSTAT5 (#9359), ERK (#4695), Actin (#4970), Caspase 3 (#14220), wildtype CALR (#12238) were purchased from Cell Signalling. Primary antibodies against pSTATI (#612233), pSTAT3 (#612357), STATI (#610186), STAT3 (#610190), STAT5 (#610192) and Anti-phosphotyrosine 4G10 (#610012) were purchased from BD Biosciences. Mutant CALR monoclonal antibody CAL2 was purchased from Dianova (Hamburg, Germany). Immunopreciptation of TpoR was performed in standard NP40 lysis buffer with additional 50 mM iodoacetamide to avoid any de novo disulfide bond formation post lysis. To reduce IgG background during immunoprecipitation anti-FLAG conjugated to magnetic beads (Sigma, #M8823) were used. For this same reason, anti-FLAG-HRP conjugated antibodies (Sigma, #A8592) were used in western blotting.

[1] = test system: wild type TF-1 TpoR expressing cells; experiment: Flow cytometry of 4D7 binding to the cell surface, wild type cells; type: cell-based, human; settings: PE-conjugated 4D7; wild type TF-1 TpoR cells
[2] = test system: TF-1 TpoR CALR^del52 cells; experiment: Cell proliferation, trypan blue exclusion; type: cell-based, human; settings: over 5 days at 2, 10 and 20 μg/mL
Method: (§1) In brief, cells were seeded at 5×10^4/mL in standard growth media, with any necessary cytokines, and the addition of 20 μg/mL IgG or 2, 10 or 20 μg/mL 4D7. Cells were seeded in triplicate and each well was counted in triplicate every 24 hours for 5 days using trypan blue exclusion.

[3] = test system: TF-1 cells expressing TpoR alone (endogenous wild type CALR); experiment: Cell proliferation, trypan blue exclusion; type: cell-based, human; settings: in presence of TPO; 2, 10 or 20 μg/mL
Method: as §1

[4] = test system: TpoR in TF-1 TpoR CALR^del61; experiment: TpoR tyrosine phosphorylation, immunoprecipitation and Western blot; type: cell-based, human; settings: 8 hours of 20 μg/mL
Method: A. Cell extracts blotted for phospho-STAT1, total STAT1, phospho-STAT3, total STAT3 and actin from TF-1 TpoR cells after incubation with 10 or 20 μg/mL 4D7 or IgG for 4 or 8 hours as indicated. B. Similar experiment using TPO-independent TF-1 TpoR CALR^del61 cells at 4 and 8 hours. C. Similar experiment shown using TPO-independent TF-1 TpoR CALR^del52 cells, 8 hours. D. Flow cytometry analysis for cell cycle distribution of TF-1 TpoR CALR^del61 cells exposed to 20 μg/mL IgG or 4D7 for 48 hours. Cells were harvested and fixed and stained with propidium iodide and their DNA contents were analysed. Results from one representative experiment shown. Percentages of cells in Sub Go, G1. S and G2/M cycle indicated. E. Western blot showing specific co-immunoprecipitation of mutant CALR^del61 cells with TpoR anti-FLAG antibody under reducing conditions detected by total and mutant specific CALR antibodies. Arrowheads represent detected CALR protein. F. Western blot showing decreased TpoR phosphorylation in a TpoR immunoprecipitated after 8 hours of 20 μg/mL 4D7 treatment compared to PBS or IgG control in TF-1 TpoR CALR^del61. […]

[5] = test system: TF-1 TpoR CALR^del61 cells in NSG mice; experiment: Bone marrow engraftment xenograft model; type: in vivo
Method: All procedures were approved by the South Australian Health and Medical Research Animal Ethics Committee (Protocol SAM21-018). Bone marrow engraftment model: 4-6 week old NSG mice were x-ray irradiated with 150 cGy and 5×10^5 cells (TF-1-TpoR CALR^del61) or 5×10^4 cells (100 nM ruxolitinib resistant TF-1 TpoR CALR^del61) were intravenously injected into mice. […] Tail vein bleeds were taken at 3 weeks and analysed via flow cytometry to determine human leukaemia content in the peripheral blood. Leukemic cells were PI-, mCD45.1, hCD33+, zsGreen+. Mice were monitored daily and euthanized once clinical symptoms were observed. At the time of euthanasia, cardiac puncture was performed to obtain both peripheral blood and serum for analysis. Additionally, bone marrow from both femurs, spine and spleens were analysed for leukemic content as detailed above. Chloroma model: 4-6 week old NSG mice were anaesthetised by isoflurane inhalation and shaved on the left back/flank and 1×10^7 cells were injected into the mice. Cells were pre-treated with 20 μg/mL IgG or 4D7 for 1 hour prior to injection. […] Tumour progression was assessed through caliper measurements every 2 days. Mice were euthanised once tumours began to impede movement, show signs of ulceration or if any measurement of the tumour exceeded 30 mm (length, width or depth).

B1: 4D7: rat monoclonal IgG2a antibody against the mutant CALR neoepitope; VH SEQ ID NO: 5, VL SEQ ID NO: 7 (antibody, listed as Rattus rattus, V domains shown)
VH: QVQLQQSGAELAKPGSSVKISCKASGYTFTNYDMSWIKQRPGQALEWIGAINPGNGVTDYNEKFRGKATLTVDKSSSTAFMQLSSLTPEDTAVYHCAREYRDNYGYFDYWGQGVMVTVSS
VL: DIVLTQTPVSLSVTLGDQASISCRSSQSLEYSDGYTYLDWFLQKPGQSPQLLIYEVSSRFSGVPDRFIGRGSGTDFTLKISRVEPEDLGVYYCFQATHDPFTFGSGTKLEIK
For B1, the “reactivity to the peptide and CALR mutant protein among hybridoma clones” value (mutant CALR protein; 3 hybridoma screens, FIG. 6A) was “strongest reactivity”, the “detection of mutant CALR protein by Western blot” value (mutant CALR protein; TF-1 TpoR CALR^del61 vs CALR wild type TF-1 cells) was “able to detect mutant CALR protein in CALR^del61 cells but not in CALR wild type TF-1 cells” and the “binding to the cell surface” value [1] was “but not wild type TF-1 TpoR expressing cells”. The TPO-independent cell growth [2] was “blockade of TPO-independent cell growth”, the inhibition of proliferation [3] was “no inhibition” and the TpoR tyrosine phosphorylation [4] was “inhibition”. The “peripheral blood engraftment of human CD33+ myeloid cells” value ([5]; 3 weeks, 12.5 mg/kg twice weekly i.p. starting day 7, P=0.01) was 0.04% and the “survival, log-rank hazard ratio” value ([5]; 4D7 vs IgG, 12.5 mg/kg twice weekly, P=0.003) was 0.24.
